Test: soluble fraction after stress (log2 fold change); higher = more stays soluble; pooled small domains, quantitative proteomics
Conditions: stress: 75 degC
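Note: 20 min heating vs room temperature control held 20 min.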

Row | Sequence | soluble fraction (log2)
1 | HMYVEVPNFIGVPLVKVQSELASLGLVFNKSVVYQTSPYLKGNILDQRPLPGEVVPLNTEMSFTVSSGPA | -0.5
2 | HMYVKIAADAAMPYTIKRVVTDYSSAALDAAYDGSLPKWLTISSSTKDAGSGLYRHEIIYTVTAHPE | -0.666
3 | HMYVYEPGEFAVRGSILDVYSYASEFPYRIDFFGDDVESIRTFEVQTQLSKEAKDRVSIVPDTEQ | -0.258
4 | HMYYNDEELDGYRGTPSDAYSDNAVEEFREVLYTLREDEVSGWVRSLQLRGIFLPDAIKDETFLI | -1.33
5 | HMYYTAPDGRKREILDAALRLIAAGGPDSLTYRRVADEAGVPLGSLTYYFEAREDLIREAFRLYIAEASR | -3.16

Source: the domain aggregation screens of Martell et al. (2025)
